Test results: patent US7868228

B1: Shewanella oneidensis MR-1 phosphopantetheinyl transferase (So-ppt) (protein)
chain: MKIELFFIPLAEMDAEMVSRCMALLSEDERAKVARYLAPKAQMNGLLVRAALRCVLSQGLQSPNESSLNAFSSNTGSLPIAPQDWCFEYGAKGKPSLCHEQFLKTGIEFNLSHSGDWLLIALAQGRAHTKFIDQSAKTRLGLGVDIERARASTNIYPILNHYFSARETEALLALPGETAHRQRFFDLWALKESYIKATGLGLAQSLKSFAFELMPDALVEVHPNQVALRHEWVELKRREPFALPSQLKLYCEIKPTAAFLPDSAHPPPENLHVQSYFGRLDEEYRFGLSLIHPNALSNVQISMTLASIKSLLAASLAD
B2: Moritella marina phosphopantetheinyl transferase, short form (Mm-ppt short) (protein)
chain: MYSGVKDKLTLTTNEIHLWSVTPQTIQQPELLQAYSQLLSPAETIKQQRFRFEKDRHNALITRAFVRDLLSHYADVLPADWQFVKGEKDKPEIANPPLPLRFNISHTDNLIICAVMLNDDIGCDVENTLRSSNVLSIAKHSFSDSEFNDLLTQPTAQQTSRFFDYWTLKESYIKAWGLGLSIPLKDFSFTLPEGFQQQYQQEDQQENQHCIDTIKLSFAPHRIDNPNIWRHWLFYPNNTHRVALAVRARSNNQQTEYKMRFFNSTPLINITETLIFKPETNFKPDAK
B3: Colwellia psychrerythraea phosphopantetheinyl transferase (Cp-ppt) (protein)
chain: MTSFSQSELSTRTKEKLDLAANEIHIWVTKPEELLGNDELLATYSTLLTSTETAKQQRYKFAKDRHDALITRAFIRDLLSYYADVAPQDWQFEKGNKDKPEVINCPLPLRFNISHTKNLIICAVTLEDDIGCDVENTGRNNNVLAIAERYFSSKEIDELFALPEAQQRNRFFDYWTLKESYIKAWGLGLAIPLADFSFKINDTEHNHNGLFTIKQDINLSFAEHRVDEPQIWRSWLVYPTAAIDEKQEHRIAVSLRATSDNQKTDYQLRFFNTLPLLGYQEI
B4: Moritella marina phosphopantetheinyl transferase, long form (Mm-ppt long) (protein)
chain: LVQLKTYDETRLRSDGVNYLGGNLSYYQACNGKRIILVSILIMYSGVKDKLTLTTNEIHLWSVTPQTIQQPELLQAYSQLLSPAETIKQQRFRFEKDRHNALITRAFVRDLLSHYADVLPADWQFVKGEKDKPEIANPPLPLRFNISHTDNLIICAVMLNDDIGCDVENTLRSSNVLSIAKHSFSDSEFNDLLTQPTAQQTSRFFDYWTLKESYIKAWGLGLSIPLKDFSFTLPEGFQQQYQQEDQQENQHCIDTIKLSFAPHRIDNPNIWRHWLFYPNNTHRVALAVRARSNNQQTEYKMRFFNSTPLINITETLIFKPETNFKPDAK

Target: Moritella marina polyketide synthase (PKS), four polypeptides Orf5, Orf6, Orf7 and Orf8

Protein | DHA Produced (gas chromatography of fatty acid methyl esters from E. coli co-expressing the Ppt and the PKS)
B1 | Yes
B2 | Yes
B3 | Yes
B4 | Yes
